Assay results reported in paper PMC11841055, “Structural characterization of pyruvic oxime dioxygenase, a key enzyme in heterotrophic nitrification” (Journal of Bacteriology, 2025).

B1: AfPOD (Alcaligenes faecalis) (protein)
chain: MDTPLRDKSYFDERATKEMATHLQQVQRDTRETMAFACRILAMTEQEAGLAGQISVRSERPGAYWTLRFGLGFDEATPEDFIEVDRDLNTLSGEGMANPATRFHLWVYEARPDVNSIIHTHSPWATVLATARQPLVISQMDMTPLHNDCAFLGEWPGVPIADQEGVIISKALGDKRAIILAHHGYLTAGKSCQEATYLSVYLERAARLQVRAQAAFGPLTPVDDTLAAEAHDYLLKPSIVNATFDYWSRQTQGIAPLTKTR

What follows are molecules tested on CC(=NO)C(=O)O (assay: nitrite production, diazo-coupling spectrophotometry). Conditions: 20 mM Tris-HCl pH 8.0, 1.0 mM sodium ascorbate, 100 µM FeSO4, O2 as co-substrate.
Assay type: biochemical, Alcaligenes faecalis
Text: (§1) nitrite production, diazo-coupling spectrophotometry on AfPOD

Q: How did the Km turn out when B1 was run?
A: 622 ± 83 µM

Q: What about the kcat of the same molecule?
A: 4.8 ± 0.169 s⁻¹

Q: What about the kcat/Km of the same molecule?
A: 7700 M⁻¹ s⁻¹

What follows are molecules tested on T1, CC(=NO)C(=O)O in the same assay as above. Conditions: 20 mM Tris-HCl pH 8.0, 1.0 mM sodium ascorbate, 100 µM FeSO4, O2 as co-substrate.
T1 construct: full length, 261 residues (Met1-Arg261); recombinant in E. coli; variants with C-terminal His6-tag, WT by two untagged chromatographic steps; homotetramer, Fe(II)-dependent
Assay type: biochemical, Alcaligenes faecalis
Text: as §1

Q: AfPOD (Alcaligenes faecalis; E164A) was tested. Which Km did it give?
A: 943 ± 240 µM

Q: What about the kcat of the same molecule?
A: 0.27 ± 0.02 s⁻¹

Q: What about the kcat/Km of the same molecule?
A: 290 M⁻¹ s⁻¹

Q: How did the Km turn out when AfPOD (Alcaligenes faecalis; E229K) was run?
A: 2150 ± 172 µM

Q: What about the kcat of the same molecule?
A: 4.58 ± 0.098 s⁻¹

Q: What about the kcat/Km of the same molecule?
A: 2100 M⁻¹ s⁻¹

Q: What does the source list for AfPOD (Alcaligenes faecalis; E229K/K8E)?
A: Km: 2538 ± 568 µM; kcat: 1.76 ± 0.109 s⁻¹; kcat/Km: 690 M⁻¹ s⁻¹

Q: Which Km does the source give for AfPOD (Alcaligenes faecalis; F69A) here?
A: 41509 ± 9984 µM

Q: And the kcat?
A: 0.246 ± 0.018 s⁻¹

Q: And the kcat/Km?
A: 5.9 M⁻¹ s⁻¹

Q: Which results are given for AfPOD (Alcaligenes faecalis; F103A)?
A: Km: 89 ± 22 µM; kcat: 0.008 ± 0.001 s⁻¹; kcat/Km: 90 M⁻¹ s⁻¹

Q: AfPOD (Alcaligenes faecalis; H104A) was tested. Which Km did it give?
A: 170 ± 37 µM

Q: And the kcat?
A: 0.21 ± 0.013 s⁻¹

Q: What about the kcat/Km of the same molecule?
A: 1200 M⁻¹ s⁻¹

Q: For AfPOD (Alcaligenes faecalis; K8E), which Km is on record?
A: 68766 ± 20299 µM

Q: And the kcat?
A: 0.632 ± 0.066 s⁻¹

Q: And the kcat/Km?
A: 9.2 M⁻¹ s⁻¹

Q: Which Km does the source give for AfPOD (Alcaligenes faecalis; Q53A) here?
A: 96 ± 18 µM

Q: And the kcat?
A: 0.162 ± 0.008 s⁻¹

Q: And the kcat/Km?
A: 1700 M⁻¹ s⁻¹

Q: How did the Km turn out when AfPOD (Alcaligenes faecalis; Y233A) was run?
A: 42247 ± 16705 µM

Q: What about the kcat of the same molecule?
A: 0.012 ± 0.001 s⁻¹

Q: What about the kcat/Km of the same molecule?
A: 0.3 M⁻¹ s⁻¹
